The target in the data set is T1, dCREB2-a (Drosophila melanogaster) (UniProt Q9VWW0).
T1 sequence: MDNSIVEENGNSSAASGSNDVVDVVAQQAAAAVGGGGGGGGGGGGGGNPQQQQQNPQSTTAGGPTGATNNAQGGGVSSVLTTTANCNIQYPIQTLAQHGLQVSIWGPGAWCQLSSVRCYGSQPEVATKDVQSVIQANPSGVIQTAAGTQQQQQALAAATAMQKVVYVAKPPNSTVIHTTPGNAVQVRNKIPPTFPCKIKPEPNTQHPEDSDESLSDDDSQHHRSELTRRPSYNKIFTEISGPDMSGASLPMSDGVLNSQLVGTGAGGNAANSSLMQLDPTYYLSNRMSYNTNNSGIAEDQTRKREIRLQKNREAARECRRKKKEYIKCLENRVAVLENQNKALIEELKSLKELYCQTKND
Description: cell_activity. Particulars: F9 cells, with PKA versus PKA alone.

D(-71) CAT reporter CRE fragment came in with an activity of 5.4 fold.

The values are drawn from patent US6051559.
